Laboratory results taken from the Human Domainome abundance scans (Beltran et al. 2025).
± gives the uncertainty stated by the source.

B1: Tumor protein p73, residues 487 to 549; numbered along this chain, O15350 (parent)
chain: YHADPSLVSFLTGLGCPNCIEYFTSQGLQSIYHLQNLTIEDLGALKIPEQYRMTIWRGLQDLK

Variants of: B1
Experiment: abundance fitness (aPCA) (normalised: wild type 0, dead -1); higher = more abundant; growth selection in yeast, the domain comes from the species named
Settings: Homo sapiens

Variant | abundance fitness
YHADPSLVSFLTGLGCPNCIEYFYSQGLQSIYHLQNLTIEDLGALKIPEQYRMTIWRGLQDLK | -0.206 ± 0.15
YHADPSLVSFLTGLGCPNCIEYFTSQGLQYIYHLQNLTIEDLGALKIPEQYRMTIWRGLQDLK | -0.016 ± 0.051
YHADPSLVSFLTGLGCPNCIEHFTSQGLQSIYHLQNLTIEDLGALKIPEQYRMTIWRGLQDLK | 0.031 ± 0.07
YHADPSLVSFLTGLGCPVCIEYFTSQGLQSIYHLQNLTIEDLGALKIPEQYRMTIWRGLQDLK | -0.055 ± 0.043
YHADPSLVSFLTGLGCPECIEYFTSQGLQSIYHLQNLTIEDLGALKIPEQYRMTIWRGLQDLK | 0.033 ± 0.042
YHADPSLVSFLTGLGCPNCIEYFTSQGLQSIYHLQYLTIEDLGALKIPEQYRMTIWRGLQDLK | -0.202 ± 0.091
YHADPSLVSFLTGLGCPNCIEYFTSQGLQSIYHLQCLTIEDLGALKIPEQYRMTIWRGLQDLK | -0.567 ± 0.33
YHADPSLVSFLTGLGCPNCIEYFTSQGLQSIYPLQNLTIEDLGALKIPEQYRMTIWRGLQDLK | -0.127 ± 0.037
YHADPSLVSFLTGLGCPNCIEYFTSQGLQSIYHLQNLTIEDLGALKIPEQYEMTIWRGLQDLK | -0.075 ± 0.051
YHADPSLVSFLTGLGCPNCIEYFTSQGLQSIYHLQNLTIEDLGALKIPEQYIMTIWRGLQDLK | 0.2 ± 0.073
YHADPSLVSFLTGLGCPNCIEYFTSQGLQSIYHLQNLTIEDLGARKIPEQYRMTIWRGLQDLK | -0.241 ± 0.032
YHADPSLVSFLTGLGCPNCIEYFTSQGLQSIYHLQNLTIEDLGAQKIPEQYRMTIWRGLQDLK | -0.518 ± 0.083
YHADPSLVSFLTGLGCPNCIEYFTSQGLQSIYHLQNLTIEDLGANKIPEQYRMTIWRGLQDLK | -0.224 ± 0.091
YHADPSLVSFLTGLICPNCIEYFTSQGLQSIYHLQNLTIEDLGALKIPEQYRMTIWRGLQDLK | -0.937 ± 0.27
YHADPSLVSFLTGLGCPNCIEYFTSQGLQSIYHLQNLTIEDLGALKIPEQYRGTIWRGLQDLK | -0.025 ± 0.032
YHADPSLVSFLTGLGCPNCIEYFTSQGLQSIYHLQNLTIEDVGALKIPEQYRMTIWRGLQDLK | -0.127 ± 0.028
YHADPSLVSFLTGLGCPNCIEYFTSQGLQSIYHLQNLTIEDFGALKIPEQYRMTIWRGLQDLK | 0.012 ± 0.07
YHADPSLVSFLTGLGCPNCIEYFTSQGLQSIYHLQNLTIEDGGALKIPEQYRMTIWRGLQDLK | -0.654 ± 0.05
YHADPSLVSFLTGLGCPNCIEYFTSQVLQSIYHLQNLTIEDLGALKIPEQYRMTIWRGLQDLK | -0.61 ± 0.084
YHADPSLVSFLTGLGCPNCIEYFTSTGLQSIYHLQNLTIEDLGALKIPEQYRMTIWRGLQDLK | -0.082 ± 0.06
YHADPSLVSFLTGLGCPNCIEYFTSGGLQSIYHLQNLTIEDLGALKIPEQYRMTIWRGLQDLK | -0.034 ± 0.035
YHADPSLVSFLTGLGCPNCIEYFTKQGLQSIYHLQNLTIEDLGALKIPEQYRMTIWRGLQDLK | 0.046 ± 0.044

Variant | abundance fitness
YHADPSLVSFLTGLGCPNCIEYFTAQGLQSIYHLQNLTIEDLGALKIPEQYRMTIWRGLQDLK | 0.03 ± 0.036
YHADPSLVSFLTGLGCPNCIEYFTWQGLQSIYHLQNLTIEDLGALKIPEQYRMTIWRGLQDLK | -0.361 ± 0.041
YHADPSLVSFLTGLGCPNCIEYFTEQGLQSIYHLQNLTIEDLGALKIPEQYRMTIWRGLQDLK | 0.129 ± 0.046
YHADPSLVSFLTGLGCPNYIEYFTSQGLQSIYHLQNLTIEDLGALKIPEQYRMTIWRGLQDLK | -0.233 ± 0.1
YHADPSLVSFLTGLGCPNDIEYFTSQGLQSIYHLQNLTIEDLGALKIPEQYRMTIWRGLQDLK | -0.699 ± 0.18
YHADPSLVSFLTGLGCPNIIEYFTSQGLQSIYHLQNLTIEDLGALKIPEQYRMTIWRGLQDLK | -0.055 ± 0.09
YHADPSLVSFLTGLGCPNQIEYFTSQGLQSIYHLQNLTIEDLGALKIPEQYRMTIWRGLQDLK | 0.028 ± 0.056
YHADPSLVSFLTGLGCPNCIEYFTSQGLQSIYHLQNLTIEDLGALKIPEQYRMTIWRGLPDLK | -0.388 ± 0.05
YHADPSLVSFLTGLGCPNCIEYFTSQGLQSIYHLQNLTIEDLGALKIPEQYRMTIWRGLLDLK | -0.013 ± 0.04
YHADPSLVSFLTGLGCPNCIEYFTSQGLQSIYHLQNLTIEDLGALKIPEQYRMAIWRGLQDLK | -0.034 ± 0.042
YHADPSLVSFLTGLGCPNCIEYFTSQGLQSIYHLQNLTIEDLGALKIPEQYRMVIWRGLQDLK | 0.088 ± 0.038
YHADPSLVSFLTGLGCPNCIEYFTSQGLQSIYHLQNLTIEFLGALKIPEQYRMTIWRGLQDLK | -0.689 ± 0.16
YHWDPSLVSFLTGLGCPNCIEYFTSQGLQSIYHLQNLTIEDLGALKIPEQYRMTIWRGLQDLK | 0.209 ± 0.037
YHHDPSLVSFLTGLGCPNCIEYFTSQGLQSIYHLQNLTIEDLGALKIPEQYRMTIWRGLQDLK | 0.101 ± 0.094
YHMDPSLVSFLTGLGCPNCIEYFTSQGLQSIYHLQNLTIEDLGALKIPEQYRMTIWRGLQDLK | 0.349 ± 0.12
YHFDPSLVSFLTGLGCPNCIEYFTSQGLQSIYHLQNLTIEDLGALKIPEQYRMTIWRGLQDLK | 0.36 ± 0.11
YHADPSLVSFLTGLGCPNCIEYFTSQGLQSIYHLQNLTIEDLGALVIPEQYRMTIWRGLQDLK | -0.092 ± 0.034
YHADPSLVSFLTGLGCPNCIEYFTSQGLQSIYHLQNLTIEDLGALYIPEQYRMTIWRGLQDLK | -0.301 ± 0.1
YHADPSLVSFMTGLGCPNCIEYFTSQGLQSIYHLQNLTIEDLGALKIPEQYRMTIWRGLQDLK | -0.115 ± 0.043
YHADPSLVSFLTGLGCPNCIEYFTSQGLQSFYHLQNLTIEDLGALKIPEQYRMTIWRGLQDLK | -0.294 ± 0.21
YHADPSLVSFLTGLGCPNCIEYFTSQGLQSIYHLQNLTIEDLGALKIDEQYRMTIWRGLQDLK | -0.054 ± 0.051
YHADPSLVSFLTGLGCPNCIEYFTSQGLQSIYHLQNLTIEDLGALKIPEQYRMTIWRTLQDLK | -0.358 ± 0.052

Variant | abundance fitness
YHADPSLVSFLTGLGCPNCIEYFTSQGLQSIYHLQNLTIEDLGALKIPEQYRMTIWRMLQDLK | -0.896 ± 0.12
YNADPSLVSFLTGLGCPNCIEYFTSQGLQSIYHLQNLTIEDLGALKIPEQYRMTIWRGLQDLK | 0.216 ± 0.07
YHADPSLVSFLTGLGCPNCIEYFTSQGLQSIYHLQNLTIEDLGSLKIPEQYRMTIWRGLQDLK | 0.057 ± 0.042
YHADPSLPSFLTGLGCPNCIEYFTSQGLQSIYHLQNLTIEDLGALKIPEQYRMTIWRGLQDLK | 0 ± 0.064
YHADPSLESFLTGLGCPNCIEYFTSQGLQSIYHLQNLTIEDLGALKIPEQYRMTIWRGLQDLK | 0.222 ± 0.043
YHADPSLKSFLTGLGCPNCIEYFTSQGLQSIYHLQNLTIEDLGALKIPEQYRMTIWRGLQDLK | 0.235 ± 0.04
YHADPSLHSFLTGLGCPNCIEYFTSQGLQSIYHLQNLTIEDLGALKIPEQYRMTIWRGLQDLK | -0.024 ± 0.079
YHADPSLVSFLTGLGCPNCIEYFTSQGLQSIYHLQNLTIEDLVALKIPEQYRMTIWRGLQDLK | -0.018 ± 0.053
YHADNSLVSFLTGLGCPNCIEYFTSQGLQSIYHLQNLTIEDLGALKIPEQYRMTIWRGLQDLK | 0.225 ± 0.084
YHADPSLVSFLTGLGCPNCIEYKTSQGLQSIYHLQNLTIEDLGALKIPEQYRMTIWRGLQDLK | -0.975 ± 0.15
YHADPSLVSFLTGLGCPNCIEYDTSQGLQSIYHLQNLTIEDLGALKIPEQYRMTIWRGLQDLK | -1.18 ± 0.19
YHADPSLVSFLTGLGCPNCIEYFTSQGLQSIYHLQNLTIEDLGALKIPAQYRMTIWRGLQDLK | 0.007 ± 0.039
YHADPSLVSFLTGLGCPNCIEYFTSQGLQSIYHLQNLTIEDLGALKIPLQYRMTIWRGLQDLK | -0.042 ± 0.036
YHADPSLVSFLTGLGCPNCINYFTSQGLQSIYHLQNLTIEDLGALKIPEQYRMTIWRGLQDLK | -0.037 ± 0.098
YHADPSLVSTLTGLGCPNCIEYFTSQGLQSIYHLQNLTIEDLGALKIPEQYRMTIWRGLQDLK | -0.823 ± 0.11
YHADPSLVSFLLGLGCPNCIEYFTSQGLQSIYHLQNLTIEDLGALKIPEQYRMTIWRGLQDLK | -0.146 ± 0.034
YHADPSLVSFLIGLGCPNCIEYFTSQGLQSIYHLQNLTIEDLGALKIPEQYRMTIWRGLQDLK | -0.032 ± 0.04
CHADPSLVSFLTGLGCPNCIEYFTSQGLQSIYHLQNLTIEDLGALKIPEQYRMTIWRGLQDLK | -0.172 ± 0.076
YHADPSLVSFLTGFGCPNCIEYFTSQGLQSIYHLQNLTIEDLGALKIPEQYRMTIWRGLQDLK | -0.493 ± 0.058
YHADPSLVSFLTGEGCPNCIEYFTSQGLQSIYHLQNLTIEDLGALKIPEQYRMTIWRGLQDLK | -0.53 ± 0.071
YHADPSLVSFLTGLGCPNCIEYFTSQGLQSIYHLQNLTIEDLGALKIPEQYRMTITRGLQDLK | 0.082 ± 0.051
YHADPSLVSFLTGLGCPNCIEYFTSQGLQSIYHLQNLTIEDLGALKIPEQYRMTIIRGLQDLK | 0.086 ± 0.058

Variant | abundance fitness
YHADPSLVSFLTGLGCPNCIEYFTSQGLQSIYHLQNLTIEDLGALKIPEQYRMTIKRGLQDLK | -0.106 ± 0.044
YHADPSLVSFLTGLGCPNCIEYFTSQGLQSIYHLQNLTIEDLGALKIPEQYRMTIWLGLQDLK | -0.069 ± 0.038
YHADPSLVSFLTGLGCPNCIEYFTSQGLQSIYHLQNLTIEDLGALKIPEQYRMTIWFGLQDLK | 0.311 ± 0.39
YHADPSLVSFLTGLGCPNCIEYFTSQGLQSIYHLQNLTIEDLGALKIPEQYRMTIWRGQQDLK | -0.554 ± 0.092
YHADPSLVSFLTGLGCSNCIEYFTSQGLQSIYHLQNLTIEDLGALKIPEQYRMTIWRGLQDLK | 0.015 ± 0.031
YHADPSLVSFLTGLGCLNCIEYFTSQGLQSIYHLQNLTIEDLGALKIPEQYRMTIWRGLQDLK | 0.023 ± 0.034
YHADPSLVSFLTGLGCPNCIEYFTSQGLQSIYHLQNLTIEDLGALKCPEQYRMTIWRGLQDLK | -0.171 ± 0.034
YHADPSLVSFLTGLGCPNCIEYFTSQGLQSIYHLQNLTIEDLGALKQPEQYRMTIWRGLQDLK | -0.985 ± 0.088
YHADPSLVSFLTGLGCPNCIEYFTSQGLQSIYHLQNLTIEDLGALKDPEQYRMTIWRGLQDLK | -0.477 ± 0.13
YHADPSLVSFLTGLGCPNCIEYFTSQGLQSIYHLQNLTIEDLGALKIPEQYRMTIWRGLQDLS | 0 ± 0.058
YHADPSLVSFLTGLGCPNCIEYFTSQGLQSIYHLQNLTIEDLGALKIPEQYRMTFWRGLQDLK | -0.601 ± 0.096
YHADPSLVSFLTGLGCPNCIEYFTSQGLQSIYHLQNWTIEDLGALKIPEQYRMTIWRGLQDLK | -0.159 ± 0.054
YHADPSLVSFLTGLGCPNCIEYFTSQGLQSIYHLQNLTIEDLGALKIPEQVRMTIWRGLQDLK | -0.06 ± 0.062
YHADPSLVSFLTGLGCPNCIEYFTSQGLQSIYHLQNLTIEDLGALKIPEQPRMTIWRGLQDLK | -0.049 ± 0.094
YHADPSLVSFLTGLGCPNCIEYFTSQGLQSIYHYQNLTIEDLGALKIPEQYRMTIWRGLQDLK | -0.285 ± 0.14
YHADPKLVSFLTGLGCPNCIEYFTSQGLQSIYHLQNLTIEDLGALKIPEQYRMTIWRGLQDLK | -0.07 ± 0.066
YHADPSLVAFLTGLGCPNCIEYFTSQGLQSIYHLQNLTIEDLGALKIPEQYRMTIWRGLQDLK | -0.101 ± 0.043
YHADPSLVVFLTGLGCPNCIEYFTSQGLQSIYHLQNLTIEDLGALKIPEQYRMTIWRGLQDLK | -0.373 ± 0.039
YHADPSLVLFLTGLGCPNCIEYFTSQGLQSIYHLQNLTIEDLGALKIPEQYRMTIWRGLQDLK | -0.131 ± 0.039
